Assay results as given in patent publication US20240317845A1 (NINGBO SANSHENG BIOLOGICAL TECHNOLOGY, published 2024).

How the values were obtained:
[1] = target: T1, 6-25 fragment of inhibin α-subunits coupled to chicken ovalbumin (OVA) (porcine (fragment said to be 100% …, UniProt P01012 2-386, chemically coupled to chicken ovalbumin (OVA))); assay: indirect ELISA, plate coated with 6-25 fragment-OVA, culture supernatant, replicate 1
T1 construct: also called antigenic peptide; 6-25 fragment of inhibin a subunits
T1 sequence (peptide, as listed by the source limits assumed, chain 1 of 2): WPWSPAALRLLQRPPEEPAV
T1 sequence (P01012 2-386 limits assumed, chain 2 of 2): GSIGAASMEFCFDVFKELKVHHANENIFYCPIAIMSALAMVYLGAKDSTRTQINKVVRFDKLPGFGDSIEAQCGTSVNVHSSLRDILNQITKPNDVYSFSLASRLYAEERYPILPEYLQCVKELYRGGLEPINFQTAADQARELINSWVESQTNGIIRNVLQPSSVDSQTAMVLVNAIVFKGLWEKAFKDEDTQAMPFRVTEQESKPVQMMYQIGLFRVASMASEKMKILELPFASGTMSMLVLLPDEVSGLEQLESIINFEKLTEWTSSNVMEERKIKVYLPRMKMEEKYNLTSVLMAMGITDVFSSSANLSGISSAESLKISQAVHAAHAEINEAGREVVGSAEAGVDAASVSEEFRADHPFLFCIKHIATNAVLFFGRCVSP
Experimental: (§1) The 6-25 fragment of inhibin α-subunits coupled to chicken ovalbumin (OVA) were diluted to a sodium bicarbonate solution having a pH9.6 at a concentration of 10 μg/ml, and 100 μl per well was added to the microtiter plate (96 well plate). The plate was set aside overnight at 2-8° C. overnight, and taken out for washing and then patted dry next day, 5% BSA was added into the plate to block, 200 μl per well, and incubated at 37° C. for 1 h;
(§2) The plate was washed and patted dry. 100 μl of the fused culture supernatant was taken under aseptical conditions, added to the microtiter plate, and incubated at 37° C. for 1 h;
(§3) After washing the plate, chromogenic solution was added into the plate, 100 μl per well, and incubated at 37° C. for 5-10 minutes. 50 μl of stop solution was added into the plate, and the absorbance value was read at a wavelength of 460 nm.

[2] = target: T1, 6-25 fragment of inhibin α-subunits …; assay: indirect ELISA, plate coated with 6-25 fragment-OVA, culture supernatant, replicate 2
Experimental: as §1, §2, §3

- absorbance at dilution ratio 200 [1]: 3.31 absorbance
- absorbance at dilution ratio 400 [1]: 2.8 absorbance
- absorbance at dilution ratio 800 [1]: 2.92 absorbance
- absorbance at dilution ratio 1600 [1]: 2.28 absorbance
- absorbance at dilution ratio 3200 [1]: 1.69 absorbance
- absorbance at dilution ratio 6400 [1]: 1.28 absorbance
- absorbance at dilution ratio 12800 [1]: 0.823 absorbance
- absorbance at dilution ratio 25600 [1]: 0.613 absorbance
- absorbance at dilution ratio 51200 [1]: 0.359 absorbance
- absorbance at dilution ratio 102400 [1]: 0.263 absorbance
- absorbance at dilution ratio 200 [2]: 3.25 absorbance
- absorbance at dilution ratio 400 [2]: 2.36 absorbance
- absorbance at dilution ratio 800 [2]: 2.08 absorbance
- absorbance at dilution ratio 1600 [2]: 1.9 absorbance
- absorbance at dilution ratio 3200 [2]: 1.43 absorbance
- absorbance at dilution ratio 6400 [2]: 0.831 absorbance
- absorbance at dilution ratio 12800 [2]: 0.648 absorbance
- absorbance at dilution ratio 25600 [2]: 0.398 absorbance
- absorbance at dilution ratio 51200 [2]: 0.256 absorbance
- absorbance at dilution ratio 102400 [2]: 0.189 absorbance
B1: anti-inhibin monoclonal antibody 1E5 secreted by hybridoma cell line 1E57 (antibody, V domains shown)
VH: EVKLVESGPELKKPGETVKISCKASGYTFTDYSMHWVKQAPGKGLKWMGWINTETGEPTYADDFKGRFAFSLETSASTAYLQINNLKNEDTATYFCAYYGPPTYSLDYWGQGASVTVSS
VL: DIQMTQTTSSLSASLGDRVTISCRASQGISNYLNWYQQKPDGTVKLLIYYTSRLLSGVPSRFSGSGSGTDYSLTISNLEQEDIATYFCQQGYTLPFTFGSGTKLEIK
notes: Mouse hybridoma antibody; Tested as culture supernatant, as ascites and as Protein G purified ascites antibody; also called 1E57 culture supernatant; ascites-derived monoclonal antibody 1E5
